Data set [1] concerns the target T1, U1A N-terminal RRM (native) (UniProt P09012 1-102). The data set is described as follows: SPR.
The target of data set [2] is T1, U1A N-terminal RRM (native). As to the kind of experiment: SPR. The source holds these as a separate data set. Background: In SPR one partner is held on a chip, and binding of the other changes the refractive index at the surface.

T1 sequence (P09012 1-102): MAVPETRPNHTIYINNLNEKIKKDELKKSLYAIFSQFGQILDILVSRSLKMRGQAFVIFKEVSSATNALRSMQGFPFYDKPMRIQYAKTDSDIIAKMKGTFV

For GGCAGAUCUGAGCCUGGGAGCUCUCUGCC (structured_RNA) [TAR], in data set [1], the binding result is “no binding”.

AGCUUAUCCAUUGCACUCCGGAUGAGCU (structured_RNA) [U1hpII] displayed a dissociation constant Kd in data set [2] of around 0.04 nM.

The term Kd denotes the equilibrium constant for the complex coming apart.

(Values after paper PMC5199234.)
